{"source": "paper PMC9198812", "about": "“Residues located in the primase domain of the bacteriophage T7 primase-helicase are essential for loading the hexameric complex onto DNA”", "key": {"[1]": {"target": "gp4-Y111A (bacteriophage T7, UniProt P03692 1-566, Y111A)", "test": "double-filter binding; 1 mM [beta,gamma-CH2] dTTP, 10 mM MgCl2; Filter binding: 40 mM Tris-HCl pH 7.5, 50 mM potassium glutamate, 10 mM MgCl2, 5 mM DTT, 1 mM [beta,gamma-CH2] dTTP, 30 min, 25 C; mass photometry: 40 mM Tris-HCl pH 7.5, 150 mM KCl, 10 mM MgCl2, 25 C, 8.7 nM gp4 hexamer, 10 nM ssDNA", "conditions": "protein: recombinant; tags: His (implied: pET28, TALON); chain copies: 6; label: 5'-32P; single strand"}, "[2]": {"target": "gp4 WT (T7 primase-helicase) (bacteriophage T7, UniProt P03692 1-566)", "test": "double-filter binding; 1 mM [beta,gamma-CH2] dTTP, 10 mM MgCl2; Filter binding: 40 mM Tris-HCl pH 7.5, 50 mM potassium glutamate, 10 mM MgCl2, 5 mM DTT, 1 mM [beta,gamma-CH2] dTTP, 30 min, 25 C; mass photometry: 40 mM Tris-HCl pH 7.5, 150 mM KCl, 10 mM MgCl2, 25 C, 8.7 nM gp4 hexamer, 10 nM ssDNA", "conditions": "protein: recombinant; tags: His (implied: pET28, TALON); chain copies: 6; label: 5'-32P; single strand"}}}
{"binder": "ATGACCATGATTTCGACGTTTTTTTTTTTGGGGATCCTCTAACCTGCGCA (ssDNA)", "note": "[50-nt ssDNA, 5'-32P]", "values": [{"measurement": "Kd", "setting": "[1]", "value": 93, "unit": "nM"}, {"measurement": "Kd", "setting": "[2]", "value": 14, "unit": "nM"}]}
